In publication PMC12098869, “An mRNA-display derived cyclic peptide scaffold reveals the substrate binding interactions of an N-terminal cysteine oxidase” (Nature Communications, 2025):
Where a chain is given by its changes, count along the chain named. “And” between values parts separate entries of the source, which are not always exact repeats. Equal entries are not always repeated.

Tests used:
Experiment in all cases: SPR; biotinylated ADO or ADO mutant immobilised on a Biotin CAP chip (~2500-3000 RU), substrate peptide injected; Biacore T200, 4 °C; 20 mM HEPES pH 7.5, 500 mM NaCl, 10 mM DTT, 0.1% tween-20; 50 µL/minute; multi-cycle or single-cycle mode not given; each cell is one of three independent measurements
Conditions in all cases: both partners purified
[1] = target: T1, ADO-D206E, N-terminally His-tagged and biotinylated (human, UniProt Q96SZ5 1-270, D206E, biotin (biotinylated during expression))
T1 construct: 2-aminoethanethiol dioxygenase (ADO), human, UniProt Q96SZ5, full length, site-directed mutant; source: E. coli Rosetta2(DE3), purified (Ni-NTA, SEC); not shown: biotinylation tag (from the vector pQE80L-Navi), N-terminal, kept
T1 sequence (looked up): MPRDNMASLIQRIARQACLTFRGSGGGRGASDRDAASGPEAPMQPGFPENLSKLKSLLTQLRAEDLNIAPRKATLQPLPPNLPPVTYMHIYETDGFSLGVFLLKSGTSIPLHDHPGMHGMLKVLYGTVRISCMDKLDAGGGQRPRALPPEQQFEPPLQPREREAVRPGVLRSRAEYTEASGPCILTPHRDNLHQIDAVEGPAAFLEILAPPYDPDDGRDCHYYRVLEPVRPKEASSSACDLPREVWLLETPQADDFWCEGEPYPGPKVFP

[2] = target: T2, ADO-F256A, N-terminally His-tagged and biotinylated (human, UniProt Q96SZ5 1-270, F256A, biotin (biotinylated during expression))
T2 construct: 2-aminoethanethiol dioxygenase (ADO), human, UniProt Q96SZ5, full length, site-directed mutant; source: E. coli Rosetta2(DE3), purified (Ni-NTA, SEC); not shown: biotinylation tag (from the vector pQE80L-Navi), N-terminal, kept
T2 sequence (looked up): T1 sequence (looked up) with E206D, F256A

[3] = target: T3, ADO-C220A, N-terminally His-tagged and biotinylated (human, UniProt Q96SZ5 1-270, C220A, biotin (biotinylated during expression))
T3 construct: 2-aminoethanethiol dioxygenase (ADO), human, UniProt Q96SZ5, full length, site-directed mutant; source: E. coli Rosetta2(DE3), purified (Ni-NTA, SEC); not shown: biotinylation tag (from the vector pQE80L-Navi), N-terminal, kept
T3 sequence (looked up): T1 sequence (looked up) with E206D, C220A

[4] = target: T4, ADO-Y222A, N-terminally His-tagged and biotinylated (human, UniProt Q96SZ5 1-270, Y222A, biotin (biotinylated during expression))
T4 construct: 2-aminoethanethiol dioxygenase (ADO), human, UniProt Q96SZ5, full length, site-directed mutant; source: E. coli Rosetta2(DE3), purified (Ni-NTA, SEC); not shown: biotinylation tag (from the vector pQE80L-Navi), N-terminal, kept
T4 sequence (looked up): T1 sequence (looked up) with E206D, Y222A

[5] = target: T5, ADO-Y212A, N-terminally His-tagged and biotinylated (human, UniProt Q96SZ5 1-270, Y212A, biotin (biotinylated during expression))
T5 construct: 2-aminoethanethiol dioxygenase (ADO), human, UniProt Q96SZ5, full length, site-directed mutant; source: E. coli Rosetta2(DE3), purified (Ni-NTA, SEC); not shown: biotinylation tag (from the vector pQE80L-Navi), N-terminal, kept
T5 sequence (looked up): T1 sequence (looked up) with E206D, Y212A

B1: IL32(2-15), synthetic peptide corresponding to the methionine excised N-terminus of IL32, residues 2-15 (peptide, UniProt P24001 2-15, looked up)
peptide: CFPKVLSDDMKKLK
notes: interleukin 32 (IL32), residues 2-15 (N-terminal Cys exposed); also called 14-mer IL32; source: synthetic peptide
Q: Which results are given for B1?
A: Kd [1]: 1210 nM and 1270 nM and 1440 nM; Kd [2]: 751 nM and 900 nM and 973 nM; Kd [3]: 1440 nM and 1180 nM and 1430 nM; Kd [4]: 921 nM and 1040 nM and 1100 nM; Kd [5]: 34000 nM and 24700 nM
